Laboratory results reported in patent US20160280799A1 (Ablynx, published 2016).

T1: active catalytic domain of MMP 1 (UniProt P03956 100-269)
T1 construct: domain: catalytic domain
T1 sequence (looked up): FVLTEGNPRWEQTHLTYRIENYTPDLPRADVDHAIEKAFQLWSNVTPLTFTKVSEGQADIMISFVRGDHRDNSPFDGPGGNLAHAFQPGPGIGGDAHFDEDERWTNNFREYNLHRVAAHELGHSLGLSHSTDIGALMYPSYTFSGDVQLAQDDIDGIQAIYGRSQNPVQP

T2: active catalytic domain of MMP 7 (UniProt P09237 95-267)
T2 construct: domain: catalytic domain
T2 sequence (looked up): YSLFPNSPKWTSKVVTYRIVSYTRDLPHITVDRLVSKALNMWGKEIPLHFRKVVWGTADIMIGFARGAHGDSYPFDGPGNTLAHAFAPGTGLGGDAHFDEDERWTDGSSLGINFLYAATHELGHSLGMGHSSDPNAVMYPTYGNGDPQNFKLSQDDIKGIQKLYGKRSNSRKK

B1: MMP-12 P1-1 (VHH)
VHH: QVQLQESGGGLVQPGGSLRLSCVASGFTFSDYPMAWVRQAPGKGLEWISVINSGGVNTSYAASVKGRFTISRDNAKNTLFLQMNSLKPEDTAVYYCAKYSLKNEQYWRGQGTQVTVSS
B2: EGFR-B11 (VHH)
VHH: QVQLQDSGGGLVQAGGSLRLSCAASRFSSAQYAIGWFRQAPGKEREGVSYITFSGGPTGYADSVKGRFTVSRDNAKNTVYLQMNSLKPEDTAVYYCAARPYTRPGSMWVSSLYDNWGQGTQVTVSS
B3: MMP-12 P1-26 (VHH)
VHH: QVQLQESGGGLVRAGGSLRLSCVASGRTLSKYRMGWFRQFPGKERELVAEIEWKSSSTWYRDSVKGRFTISRDNAKNTVYLRMNSLKPEDTAVYYCAAATLGEPLVKYTYWGQGTQVTVSS
B4: VHH#3E-His tag (VHH)
VHH: QVQLQESGGGLVQPGGSLRLSCAASGRTFSDHSGYTYTIGWFRQAPKEREFVARIYWSSGNTYYADSVKGRFAISRDIAKNTVDLTMNNLEPEDTAVYYCAARDGIPTSRSVESYNYWGQGTQVTVSS
notes: also called TNF3E; VHH TNF3E
B5: EGFR-F11 (VHH)
VHH: QVQLQESGGRLVQAGGSLRLSCAASEHTFRGYAIGWFRQAPGKEREFVSSITYDGTLTNYADSVTGRFTISRDNAKNTVYLQMNSLKPEDTAVYVCAAGYSYRYTTLNQYDSWGQGTQVTVSS
B6: MMP-12 P1-41 (VHH)
VHH: QVQLQDSGGGLVRTGDSLRLSCVVFGGTISTYAMGWFRRAPGKEREFVAAIDASGGFTEYADSVRGRFRIARDNPLSAVYLQMNSLKPEDTAFYYCAADKDRDTVVRFTTTPNEYDYWGQGTQVTVSS
B7: MMP-12 P1-44 (VHH)
VHH: QVQLQESGGGLVQPGGSLRLSCAASGFTFNNHWLYWVRQAQGKGLEWVSAINPGGSTVYLDSVKGRFTISRGNTKNTLYLQMNSLKSEDTAVYYCTKAMAWATDWDEYDLWGQGTQVTVSS
B8: EGFR-4.21 (VHH)
VHH: EVQLVESGGGLVQAGGSLRLSCAVSGRTFSSMGWFRQAPGKEREFVATINLSGDRTDYADSVKGRFTISRDNPKNTVYLQMDSLEPEDSAVYYCAGTSLYPSNLRYYTLPGTYADWGQGTQVTVSS
B9: EGFR-IIIa5 (VHH)
VHH: EVQLVESGGGLVQAGGSLRLSCTASGRTFSSYAMGWFRQTPGKEREFVAAITSSGGSTYYADSVKGRFTISRDNAKSTMYLQMDSLMLDDTSVYYCAADSSRPQYSDSALRRILSLSNSYPYWGQGTQVTVSS
B10: EGFR-1.38 (VHH)
VHH: QVQLQDSGGGLVQAGDSLRLSCAASGRSFGGYAMGWFRQAPGKEREFVAAISWSGGSTYYADSLKGRFTISRDNAKNTVYLQMNSLKPEDTALYYCAAGLRPSPNYNHERSYDYWGQGTQVTVSS
B11: MMP-12 P5-29 (VHH)
VHH: QVQLQESGGGLVQAGGSLRLSCAASGRTFTVYTTGWFRQAPGKEREFVAAIDWSGSSTYYTDSVKGRFTISRDNTKNTVYLQMNSLKPEDTAVYYCAARDAIVGVTDTSGYRYWGQGTQVTVSS
notes: also called clone P5-29

Columns and labels:
[1] = biological target: T3, active catalytic domain of MMP 3 (UniProt P08254 100-272); experiment: dot blot: periplasmic extract on 50 ng catalytic domain immobilized on Hybond C-extra, anti-c-myc detection
T3 construct: domain: catalytic domain
T3 sequence (P08254 100-272 limits assumed): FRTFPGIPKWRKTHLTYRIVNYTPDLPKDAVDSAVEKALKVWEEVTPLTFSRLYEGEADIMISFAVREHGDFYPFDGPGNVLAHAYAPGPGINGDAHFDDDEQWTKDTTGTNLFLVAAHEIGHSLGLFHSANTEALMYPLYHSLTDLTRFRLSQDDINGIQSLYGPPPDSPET

[2] = biological target: T4, active catalytic domain of MMP 9 (UniProt P14780 107-444); experiment: as above
T4 construct: domain: catalytic domain
T4 sequence (P14780 107-444 limits assumed): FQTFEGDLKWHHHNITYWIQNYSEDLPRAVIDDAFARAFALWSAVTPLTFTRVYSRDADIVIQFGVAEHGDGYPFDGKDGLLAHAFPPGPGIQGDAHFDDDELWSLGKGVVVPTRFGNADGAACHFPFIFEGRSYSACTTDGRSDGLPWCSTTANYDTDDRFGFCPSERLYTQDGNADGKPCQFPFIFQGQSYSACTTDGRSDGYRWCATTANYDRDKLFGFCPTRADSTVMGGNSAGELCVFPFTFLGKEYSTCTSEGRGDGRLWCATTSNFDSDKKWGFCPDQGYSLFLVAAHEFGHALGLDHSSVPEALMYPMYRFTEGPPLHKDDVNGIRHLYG

[3] = biological target: active catalytic domain of MMP 13 (UniProt P45452 104-274); experiment: as above
[4] = biological target: T5, active catalytic domain of MMP 2 (UniProt P08253 110-450); experiment: as above
T5 construct: domain: catalytic domain
T5 sequence (P08253 110-450 limits assumed): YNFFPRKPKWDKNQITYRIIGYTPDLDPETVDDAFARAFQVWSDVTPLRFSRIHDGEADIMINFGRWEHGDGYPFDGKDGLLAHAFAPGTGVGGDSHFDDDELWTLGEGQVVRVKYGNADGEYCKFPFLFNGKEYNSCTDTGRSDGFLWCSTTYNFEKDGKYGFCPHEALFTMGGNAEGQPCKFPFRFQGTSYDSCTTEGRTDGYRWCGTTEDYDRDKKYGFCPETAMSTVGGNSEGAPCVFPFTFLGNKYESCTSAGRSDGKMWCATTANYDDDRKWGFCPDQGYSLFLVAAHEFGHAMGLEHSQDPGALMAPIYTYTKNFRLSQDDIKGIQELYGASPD

[5] = biological target: T1, active catalytic domain of MMP 1; experiment: as above
[6] = biological target: T2, active catalytic domain of MMP 7; experiment: as above
[7] = biological target: T6, human MMP-12 catalytic domain (human, UniProt P39900 106-263); experiment: dot blot: periplasmic extract on 50 ng human MMP-12 catalytic domain on PVDF membrane, anti-c-myc detection
T6 construct: domain: catalytic domain; also called recombinant human catalytic domain of MMP12; human macrophage elastase
T6 sequence (P39900 106-263 limits assumed): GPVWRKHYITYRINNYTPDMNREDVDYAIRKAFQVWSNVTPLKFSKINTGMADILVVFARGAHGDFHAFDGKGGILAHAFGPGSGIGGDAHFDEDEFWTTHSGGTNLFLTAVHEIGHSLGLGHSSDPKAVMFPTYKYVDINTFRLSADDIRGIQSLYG

[8] = biological target: T7, human EGFR on cells (Her-14 mouse fibroblasts expressing human EGFR; A431 cells) (human, UniProt P00533 25-1210); experiment: phage ELISA on Her-14 cells (mouse fibroblasts expressing human EGFR) against parental 3T3 cells, about 10^9 phage particles, anti-M13 gpVIII-HRP, OD 405nm
T7 construct: whole, on cells; also called EGF receptor

human TNF-alpha [9] = biological target: T8, human TNF-alpha (human, UniProt P01375 77-233); experiment: ELISA: biotinylated TNFα captured on neutravidin, detection R42; sample treated with pepsin for 60 min at pH 3
T8 construct: also called TNFα; biotinylated TNF-alpha
T8 sequence (P01375 77-233 limits assumed): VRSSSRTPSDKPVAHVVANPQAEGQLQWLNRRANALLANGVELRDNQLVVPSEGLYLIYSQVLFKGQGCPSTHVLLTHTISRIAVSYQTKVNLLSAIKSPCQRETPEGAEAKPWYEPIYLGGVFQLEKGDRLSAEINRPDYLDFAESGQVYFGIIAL

human TNF-alpha [10] = biological target: T8, human TNF-alpha; experiment: ELISA: biotinylated TNFα captured on neutravidin, detection R42; sample treated with pepsin for 60 min at pH 4
human TNF-alpha [11] = biological target: T8, human TNF-alpha; experiment: ELISA: biotinylated TNFα captured on neutravidin, detection R42
human TNF-alpha [12] = biological target: T8, human TNF-alpha; experiment: ELISA: biotinylated TNFα captured on neutravidin, detection R42; sample treated with pepsin for 60 min at pH 2
[13] = biological target: T6, human MMP-12 catalytic domain; experiment: binding implied by inhibition in the colorimetric MMP-12 assay; selected on active MMP-12 on nitrocellulose

Binder	binding result [1]	binding result [2]	binding result [3]	binding result [4]	binding result [5]	binding result [6]	binding result [7]	binding result [8]	also measured
B1	no binding	no binding	no binding	no binding	no binding	no binding	binds		
B2								binds	
B3	no binding	no binding	no binding	no binding	no binding	no binding	binds		
B4									EC50 (read off the curve) (human TNF-alpha [9]): ~10 ng/mL; EC50 (read off the curve) (human TNF-alpha [10]): ~9 ng/mL; EC50 (read off the curve) (human TNF-alpha [11]): ~20 ng/mL; EC50 (read off the curve) (human TNF-alpha [12]): ~30 ng/mL
B5								binds	
B6	no binding	no binding	no binding	no binding	no binding	no binding	binds		
B7	no binding	no binding	no binding	no binding	no binding	no binding	binds		
B8								binds	
B9								binds	
B10								binds	
B11									binding result [13]: binds
